Source: US10100129B2, “Antibodies against CD73 and uses thereof” (BRISTOL-MYERS SQUIBB COMPANY, priority 2014, dated 2018)
Substitutions are numbered along the chain they refer to. Numbers in names are those of the source. One block for each molecule: values may come before it.

Assays:
CD73 on Calu6 cells = target: T1, CD73 on Calu6 cells (Homo sapiens, UniProt P21589); experiment: Dual cell line HTRF cAMP assay (Calu-6 and HEK293/A2AR cells); type: cell-based
T1 construct: Calu6 (CD73 endogenous expressors; human pulmonary adenocarcinoma cell line); endogenous in cells; host or cells: Calu6, NCI-H292, SK-MEL-24, SNU-C1, NCI-H1437, H2228, HCC15, H2030 and further human tumour lines
T1 sequence (P21589 27-549): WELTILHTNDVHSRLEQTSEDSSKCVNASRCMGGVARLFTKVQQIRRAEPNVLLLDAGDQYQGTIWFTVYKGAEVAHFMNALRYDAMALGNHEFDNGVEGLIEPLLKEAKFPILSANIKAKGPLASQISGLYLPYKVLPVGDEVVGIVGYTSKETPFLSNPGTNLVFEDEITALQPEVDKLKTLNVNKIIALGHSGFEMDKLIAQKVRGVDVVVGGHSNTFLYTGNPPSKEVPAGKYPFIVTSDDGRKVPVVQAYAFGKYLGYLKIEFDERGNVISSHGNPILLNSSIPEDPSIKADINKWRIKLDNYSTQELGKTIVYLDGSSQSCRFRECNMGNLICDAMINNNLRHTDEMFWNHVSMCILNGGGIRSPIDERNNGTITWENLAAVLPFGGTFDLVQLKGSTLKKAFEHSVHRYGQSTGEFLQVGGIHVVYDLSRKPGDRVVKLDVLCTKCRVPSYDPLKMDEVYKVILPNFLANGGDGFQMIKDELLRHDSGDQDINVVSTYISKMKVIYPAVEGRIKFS
Protocol: Inhibition of CD73 Enzymatic Activity in a Dual Cell Line cAMP Assay Homogenous Time Resolved Fluorescence (HTRF) cAMP Assay
CD73 antibodies were serial diluted with PBS buffer containing 0.2% BSA, and plated 5 μl/well in 384 well white bottom proxiplate (PerkinElmer, Waltham, Mass.). Calu-6 cells were harvested and resuspend in PBS containing 0.2% BSA, then 5 μl of cells (300 cells/well) were added to the plate. The cells were incubated with antibodies for 10 minutes at 37° C. […] The cells were further incubated with AMP for 30 minutes at 37° C. During this time, HEK293/A2AR cells were harvested and diluted to 0.4 million/ml in PBS containing 0.2% BSA. […] HRTF assays were performed using the homogenous time-resolved fluorescence (HTRF) HiRange cAMP detection kit (Cisbio, Bedford, Mass.) by adding 10 μl/well cAMP-conjugated d2 and 10 μl/well europium cryptate conjugated anti-cAMP antibody in lysis buffer according to the manufacturer's instructions. Plates were incubated at room temperature for 60 minutes and Fluorescence Resonance Energy Transfer (FRET) signals (665 and 615 nM) were read using an EnVision plate reader (PerkinElmer, Waltham, Mass.). The FRET signal was calculated as the ratio of signal from the 665 nm (acceptor) and 615 nm (donor) channels and multiplied by 10.000. IC50 and Ymax were measured. […]

cyno FcγRs = experiment: SPR binding to cyno FcγRs; set-up: species or system cynomolgus; settings: read-out: binding affinity to cyno FcγRs
human FcγRs = experiment: SPR binding profile to human FcγRs (panel); settings: read-out: binding affinity to all other FcγRs
Protocol: Binding of the constructs to human FcγRs was measured via SPR. hCD64 and hCD32a-H131 binding data for IgG1.1 and IgG2 molecules were consistent with expected values for the different Fcs. IgG1.1f is the most inert Fc.
(§1) The binding of antibodies to Fc gamma receptors (FcγRs or FcgRs) was studied using biosensor technologies including Biacore surface plasmon resonance (SPR) and Fortebio Biolayer Interferometry (BLI). SPR studies were performed on a Biacore T100 instrument (GE Healthcare) at 25° C. The Fab fragment from a murine anti-6×His antibody was immobilized on a CM5 sensor chip using EDC/NHS to a density of ˜3000 RU. Various his-tagged FcgRs (7 ug/ml) were captured via the C-terminal his-tag using a contact time of 30 s at 10 ul/min, and the binding of 1.0 μM antibody was evaluated in a running buffer of 10 mM NaPO4, 130 mM NaCl, 0.05% p20 (PBS-T) pH 7.1. FcgRs used for these experiments included CD64 (FcgRI), CD32a-H131 (FcgRIIa-H131), CD32a-R131 (FcgRIIa-R131), CD32b (FcgRIIb), CD16a-V158 (FcgRIIIa-V158), CD16b-NA1 (FcgRIIIb-NA1), and CD16B-NA2 (FcgRIIIb-NA2). BLI experiments were performed on a Fortebio Octet RED instrument (Pall, Fortebio) at 25° C. in 10 mM NaPO4, 130 mM NaCl, 0.05% p20 (PBS-T) pH 7.1. Antibodies were captured out of undiluted expression supernatants on protein A coated sensors, followed by the binding of 1 μM hCD32a-H131, hCD32a-R131, hCD32b, hCD16a-V158, or 0.1 μM hCD64 analytes.
This engineering strategy was further explored by producing other antibodies formatted with IgG2.3G1-AY, IgG2.3G1-AY-S267E (IgG2.3G1-AY-V27), as well as IgG2-B-form variants (IgG2.5G1-AY and IgG2.5G1-AY-V27), and other hybrid antibodies containing different combinations of IgG1 and IgG2 constant domains, and testing the binding of these antibodies to anti-his Fab captured his-tagged FcgRs using Biacore SPR technology.

[1] = SEC-MALS oligomeric state of CD73 mAbs; type: physicochemical
Protocol: The oligomeric state of CD73 mAbs were examined by size-exclusion chromatography coupled to an in-line multi-angle light scattering detector (SEC-MALS). Isocratic separations were performed on a Shodex PROTEIN KW-803 column connected to an Prominence Shimadzu UFLC in buffer containing 200 mM K2HPO4, 150 mM NaCl, pH 6.8, containing 0.02% Na azide (0.1 μm filtered) running at 0.5 mL/min. Samples were injected onto the column using a SIL-20AC Prominence Shimadzu autosampler, and data were obtained from three online detectors connected in series: a Prominence SPD-20AD diode array UV/vis spectrophotometer followed by a Wyatt miniDAWN™ TREOS Multi-Angle Light Scattering Detector then a Wyatt Optilab T-rEX Refractive Index Detector. Data (as shown in Table 15 below) were collected and analyzed using Astra (Wyatt) and Labsolutions (Shimadzu) software.

CD73 on NCI-H292 cells = target: T2, CD73 on NCI-H292 cells (Homo sapiens, UniProt P21589); experiment: Flow cytometry based cross-blocking on NCI-H292 cells; type: binding; settings: FITC-labeled 11F11, NCI-H292 cells
T2 construct: endogenous in cells; host or cells: NCI-H292
T2 sequence (P21589 27-549): T1 sequence (P21589 27-549)
Protocol: The antibodies were also subjected to flow cytometry based cross-blocking. The experiment was conducted as follows using one set of labeled fluorescently labeled antibody and a second set of unlabeled antibody: 100000 NCI-H292 cells were seeded per well. The plate was spun down and the cells were resuspended in 100 uL 2% FBS in PBS per well. The cells were blocked on ice for 20 min. Unlabeled antibody, as indicated, in 2% FBS in PBS was added to each well. […] 6 wells of cells were incubated without antibody, and were resuspended in 100 uL 2% FBS in PBS only (for controls). The cells were then incubated on ice for 30 min. The cells were washed twice with 2% FBS in PBS and the samples were resuspended in 140 uL 2% FBS in PBS, and analyzed on a FacsCalibur flow cytometer (Becton Dickinson).

CD73 = target: T3, CD73 (Homo sapiens, UniProt P21589); experiment: CD73 internalization at 1, 4 or 21 hours by CD73.4 with heavy chain constant region variants (FIG. 31); type: cell-based; set-up: endogenous in cells; settings: CD73.4 variable regions with the named constant region
T3 sequence (P21589 27-549): T1 sequence (P21589 27-549)
Protocol: The bars for each antibody are shown in the order of 21 hours (on the left), 4 hours (middle) and 1 hour (right).
Anti-CD73 antibodies (CD73.4) with the heavy chain constant regions shown in Table 31 were prepared and tested as described above in antibody mediated CD73 internalization assays.

[2] = test system: hCD32a-H131, hCD32a-R131, hCD32b, hCD16a-V158, hCD64; experiment: Fortebio Octet BLI binding of protein A-captured antibodies to FcgR analytes; set-up: species or system human; settings: expression supernatants
Protocol: as §1
The next set of constructs was used to engineer effector function into the otherwise effector function negative IgG2 isotype. […]

Molecule: Nc1ncnc2c1ncn2[C@@H]1O[C@H](COP(=O)(O)CP(=O)(O)O)[C@@H](O)[C@H]1O [APCP]
- IC50 (CD73 on Calu6 cells; cAMP assay): 1.29 nM
- Ymax (CD73 on Calu6 cells; percentage of inhibition relative to 100 nM 11F11 set to 100%): 97

- Kd (cyno FcγRs): > 5000 nM
- Kd (human FcγRs): < 5000 nM
Molecule: IgG2-C219S-G1.1f: effectorless IgG1/IgG2 hybrid constant region: CH1 and hinge from IgG2 (C219S), CH2 and CH3 of IgG1 (A330S/P331S); SEQ ID NO:169

- competition with 11F11 (cross-blocking) (CD73 on NCI-H292 cells): competes with 11F11
B1: 7A11: human anti-CD73 monoclonal antibody, IgG1za; VH SEQ ID NO: 88, VL SEQ ID NO: 92 (antibody, V domains shown)
VH: EVQLVESGGGLVQTGRSLRLSCAASGFTFDDYAMHWVRQAPGKGLEWVSDISWNSDIIGYADSVKGRFTISRDNAKNSLYLQMNSLRAEDTALYYCAKDIYGSGSSFFDYWGQGILVTVSS
VL: DIQMTQSPSSLSASVGDRVTITCRASQYISSWLAWYQQKPEKAPKSLIYAASSLQSGVPSRFSGSGSGTDFTLTISSLQPEDFATYYCQQYHSYPPTFGQGTRLEIK
modifications: Synthetic: 7A11 VH; Synthetic: 7A11 VK1
- SEC % HMW [1]: 0.5%
- SEC % LMW [1]: 0.5%
- SEC % Monomer [1]: 98.5%

B2: IgG2.3/4: CD73.4 with IgG2 constant region with C219S/C220S (protein)
chain: ASTKGPSVFPLAPCSRSTSESTAALGCLVKDYFPEPVTVSWNSGALTSGVHTFPAVLQSSGLYSLSSVVTVPSSNFGTQTYTCNVDHKPSNTKVDKTVERKSSVECPPCPAPPVAGPSVFLFPPKPKDTLMISRTPEVTCVVVDVSHEDPEVQFNWYVDGVEVHNAKTKPREEQFNSTFRVVSVLTVVHQDWLNGKEYKCKVSNKGLPAPIEKTISKTKGQPREPQVYTLPPSREEMTKNQVSLTCLVKGFYPSDIAVEWESNGQPENNYKTTPPMLDSDGSFFLYSKLTVDKSRWQQGNVFSCSVMHEALHNHYTQKSLSLSPGK
modifications: Synthetic: IgG2.3/4
notes: CD73.4 with IgG2 constant region with C219S/C220S
- antibody mediated CD73 internalization (in words) (CD73): much reduced internalization compared to IgG2.3 or IgG2.4 alone

- FcgR binding profile by BLI (in words) [2]: appreciable binding to only CD32a-H131
B3: IgG2.3: antibody with IgG2 constant region with C219S (protein)
constant: B2 chain with S103C
modifications: left off: another chain or arm of the molecule
notes: antibody with IgG2 constant region with C219S
